Laboratory results taken from patent US20180282403A1, “AGENTS FOR REDUCING THE ACTIVITY OF GDF15” (GENAGON THERAPEUTICS AB, priority 2015, published 2018).

Molecular target: T1, QRFPR (Homo sapiens, UniProt Q96P65)
T1 construct: endogenous in cells
T1 sequence (Q96P65 1-431): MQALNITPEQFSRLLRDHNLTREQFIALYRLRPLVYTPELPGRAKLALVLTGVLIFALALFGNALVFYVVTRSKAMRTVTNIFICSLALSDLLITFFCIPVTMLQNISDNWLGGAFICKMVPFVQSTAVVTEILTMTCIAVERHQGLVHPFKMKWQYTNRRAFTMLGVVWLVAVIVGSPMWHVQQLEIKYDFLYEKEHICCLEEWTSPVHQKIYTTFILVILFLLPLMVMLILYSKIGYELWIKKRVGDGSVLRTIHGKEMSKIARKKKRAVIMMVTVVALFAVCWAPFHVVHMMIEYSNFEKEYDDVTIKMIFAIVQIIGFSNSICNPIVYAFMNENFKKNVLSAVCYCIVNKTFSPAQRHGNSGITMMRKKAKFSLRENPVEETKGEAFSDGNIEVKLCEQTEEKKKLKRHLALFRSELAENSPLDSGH
Experiment: Western blot of QRFPR positive exosomes from conditioned medium of MCF-7 cells
Assay type: cell-based
Settings: MCF-7 cells exposed to GDF15 vs not exposed; FIG. 1B
Experimental: Conditioned cell culture media were sequentially centrifuged for 5 min at 3,000 x g to pellet the cells and then at 10,000×g for 10 min to further remove cells and cell debris. The supernatant was then filtered through a 0.45 μm filter and then finally pelleted at 100,000×g for 2 h at 4° c. Pelleted exosomes were resuspended in PBS and protease inhibitor (complete mini, Roche) was added. The samples were then prepared for further analyses as described elsewhere.
Material from the ultracentrifuged pellet was separated on a 12.5% SDS-PAGE gel (Biorad) at 150 v for 80 min, wet transferred to a Immobilon K membrane, blocked with 5% BSA for 1 h RT, and incubated with the corresponding QRFPR antibodies o/n at +4 with mild agitation. The membranes were washed with TBST, and the corresponding secondary antibodies, conjugated to horse radish peroxidase, were applied for 1 hr RT, the membrane washed with TBST and developed using an ECL detection reagent (FIG. 1B).

In the case of “GDF15: Growth and differentiation factor 15, from mammalian source or recombinant from E. coli (Abcam, Biovision)”, the “QRFPR in exosomes from conditioned medium” value is reported as “higher levels of QRFPR in conditioned medium”.
